The text below walks through data of article PMC6373445, “Identification and characterization of GH11 xylanase and GH43 xylosidase from the chytridiomycetous fungus, Rhizophlyctis rosea” (Applied Microbiology and Biotechnology, 2018).

Series [1] has as its target T1, RrXyl43A (Rhizophlyctis rosea, UniProt A0A2U8LMQ1).
T1 construct: full-length 325 residues, no native signal peptide; codon-optimized in pPICZalphaA with alpha-factor signal, His-tagged, Pichia pastoris KM71H; theoretical 39 kDa with tag; active as monomer; not N-glycosylated
T1 sequence (A0A2U8LMQ1 1-325): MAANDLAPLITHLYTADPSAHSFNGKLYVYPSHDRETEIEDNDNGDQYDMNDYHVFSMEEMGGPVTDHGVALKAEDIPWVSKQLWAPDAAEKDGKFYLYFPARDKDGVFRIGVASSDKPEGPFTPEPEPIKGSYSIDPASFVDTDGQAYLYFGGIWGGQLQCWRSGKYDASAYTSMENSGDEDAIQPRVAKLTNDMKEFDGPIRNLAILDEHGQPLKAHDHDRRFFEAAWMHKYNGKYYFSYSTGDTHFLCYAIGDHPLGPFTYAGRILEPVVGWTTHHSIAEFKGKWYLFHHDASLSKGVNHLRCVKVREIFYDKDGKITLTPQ
Nature of the series: residual pNPX hydrolysis, absorbance […] nm. Format: biochemical. The following applies: read-out: % residual activity at 100 mM.

Substrate in series [2]: O=[N+]([O-])c1ccc(O[C@@H]2OC[C@@H](O)[C@H](O)[C@H]2O)cc1
Nature of the series: purified protein. Type of series: biochemical, Rhizophlyctis rosea. The following applies: McIlvaine buffer pH 7, 25 °C, 10 min.

`OC1OC[C@@H](O)[C@H](O)[C@H]1O` (stereo partly shown) [xylose]: in series [1], the remaining activity at 100000 µM is 51%.

B1: RrXyl43A (Rhizophlyctis rosea) (protein)
chain: MAANDLAPLITHLYTADPSAHSFNGKLYVYPSHDRETEIEDNDNGDQYDMNDYHVFSMEEMGGPVTDHGVALKAEDIPWVSKQLWAPDAAEKDGKFYLYFPARDKDGVFRIGVASSDKPEGPFTPEPEPIKGSYSIDPASFVDTDGQAYLYFGGIWGGQLQCWRSGKYDASAYTSMENSGDEDAIQPRVAKLTNDMKEFDGPIRNLAILDEHGQPLKAHDHDRRFFEAAWMHKYNGKYYFSYSTGDTHFLCYAIGDHPLGPFTYAGRILEPVVGWTTHHSIAEFKGKWYLFHHDASLSKGVNHLRCVKVREIFYDKDGKITLTPQ
notes: full-length 325 residues, no native signal peptide; codon-optimized in pPICZalphaA with alpha-factor signal, His-tagged, Pichia pastoris KM71H; theoretical 39 kDa with tag; active as monomer; not N-glycosylated
As a reminder, the Km is the substrate concentration at which the rate is half of its maximum. A word on the Vmax: it is the rate approached at saturating substrate. In general, kcat refers to the maximal rate divided by the concentration of active sites. With B1, in series [2], the Km amounted to 1340 ± 170 µM, the Vmax came out at 34.6 µmol/min/mg and the kcat amounted to 21.2 ± 0.89 s⁻¹.
